Measurements: patent publication US7326418B2, “Identification of novel factors that block programmed cell death or apoptosis by targeting JNK” (University of Chicago, priority 2001, dated 2008)

What was measured:
[1] = molecular target: T1, JNKK2 (Homo sapiens, UniProt O14733, Q133P/Q94H); assay: GST pull-down, GST-Gadd45β beads with in vitro translated 35S-labeled JNKK2; format: binding
T1 construct: plasmids encoding full-length (FL) human ASK1, MEKK4, JNKK1, and JNKK2; made in house; host or cells: TNT coupled reticulocyte lysate (Promega), in vitro transcription/translation from pBS
T1 sequence (O14733 1-401 Q94H/Q133P limits assumed): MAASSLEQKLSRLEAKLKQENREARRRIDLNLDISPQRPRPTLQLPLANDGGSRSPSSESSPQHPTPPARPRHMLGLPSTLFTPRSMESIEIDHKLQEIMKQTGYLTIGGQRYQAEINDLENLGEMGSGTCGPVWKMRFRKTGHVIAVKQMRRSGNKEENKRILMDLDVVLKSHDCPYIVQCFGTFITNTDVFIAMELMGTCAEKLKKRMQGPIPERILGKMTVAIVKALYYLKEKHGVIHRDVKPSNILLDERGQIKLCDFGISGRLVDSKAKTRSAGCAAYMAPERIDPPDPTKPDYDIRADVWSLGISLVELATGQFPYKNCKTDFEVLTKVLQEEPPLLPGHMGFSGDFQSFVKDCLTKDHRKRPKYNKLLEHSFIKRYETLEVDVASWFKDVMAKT
Experimental: (§1) To confirm the above interactions, in vitro, GST pull-down experiments were performed. pBluescript (pBS) plasmids encoding full-length (FL) human ASK1, MEKK4, JNKK1, and JNKK2, or polypeptides derived from the amino- or carboxy-terminal portions of ASK1 (i.e. N-ASK1, spanning from amino acids 1 to 756, and C-ASK1, spanning from amino acids 648 to 1375) were transcribed and translated in vitro using the TNT coupled retyculocyte lysate system (Promega) in the presence of ^35S-methionine. 5 μl of each translation mix were incubated, in vitro, with sepharose-4B beads that had been coated with either purified glutathione-S-transferase (GST) polypeptides or GST-Gadd45β proteins. The latter proteins contained FL murine Gadd45β directly fused to GST. Binding assays were performed according to standard procedures, and ^35S-labeled proteins that bound to beads, as well as 2 μl of each in vitro translation mix (input), were then resolved by SDS polyacrylamide gel electrophoresis. Asterisks indicate the intact translated products. […] Thus, GST pull-down experiments confirmed the strong interaction between Gadd45β and JNKK2 observed in vivo, as well as the weaker interactions of Gadd45β with other kinases in the JNK pathway. These assays also uncovered a weak association between Gadd45β and JNKK1. […]

[2] = molecular target: T2, JNKK1 (Mus musculus, UniProt P47809); assay: GST pull-down, GST-Gadd45β beads with in vitro translated 35S-labeled JNKK1; format: binding, murine
T2 construct: plasmids encoding full-length (FL) human ASK1, MEKK4, JNKK1, and JNKK2; made in house; host or cells: TNT coupled reticulocyte lysate (Promega), in vitro transcription/translation from pBS
T2 sequence (P47809 2-397): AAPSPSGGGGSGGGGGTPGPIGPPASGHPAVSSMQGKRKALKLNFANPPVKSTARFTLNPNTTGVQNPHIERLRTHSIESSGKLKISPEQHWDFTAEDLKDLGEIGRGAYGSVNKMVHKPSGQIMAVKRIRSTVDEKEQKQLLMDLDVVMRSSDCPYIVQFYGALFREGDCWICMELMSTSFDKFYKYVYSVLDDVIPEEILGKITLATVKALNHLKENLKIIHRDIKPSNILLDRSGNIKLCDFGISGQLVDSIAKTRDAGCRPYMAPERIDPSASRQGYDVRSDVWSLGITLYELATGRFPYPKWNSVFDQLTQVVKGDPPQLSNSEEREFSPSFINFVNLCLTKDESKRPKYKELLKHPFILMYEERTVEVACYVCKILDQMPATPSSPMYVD
Experimental: as §1

association with FL-JNKK2 [1]: strongly associated
association with JNKK1 [2]: weakly
B1: GST-Gadd45β: full-length murine Gadd45β directly fused to GST, purified from E. coli (protein)
chain: MTLEELVASDNAVQKMQAVTAAVEQLLVAAQRQDRLTVGVYEAAKLMNVDPDSVVLCLLAIDEEEEDDIALQIHFTLIQSFCCDNDIDIVRVSGMQRLAQLLGEPAETLGTTEARDLHCLLVTNCHTDSWKSQGLVEVASYCEESRGNNQWVPYISLEER
modifications: left off: a dimerising Fc or GST
notes: full-length murine Gadd45β directly fused to GST, purified from E. coli
